Results taken from US20150344570A1 (published 2015).

Target: T1, FcγRIIa R (human, UniProt P12318 34-217)
T1 construct: extracellular domain; also called FcgRIIa R type; 2aR
T1 sequence (looked up): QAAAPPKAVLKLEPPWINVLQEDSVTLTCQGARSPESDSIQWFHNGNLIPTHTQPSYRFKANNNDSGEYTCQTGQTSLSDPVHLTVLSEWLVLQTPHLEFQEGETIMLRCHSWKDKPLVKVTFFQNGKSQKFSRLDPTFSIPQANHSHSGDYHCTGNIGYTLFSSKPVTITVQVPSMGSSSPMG
Test: SPR (Biacore), captured antibody, FcγR as analyte; relative binding activity

B1: GpH7-A5/GpH7-B3 variant N325_14T/GpL16-k0 (antibody, human IgG1, kappa)
heavy 1: not shown
heavy 2: not shown
light: DIVMTQSPLSLPVTPGEPASISCQASESLVHSNRNTYLHWYLQKPGQSPQLLIYKVSNRFSGVPDRFSGSGSGTDFTLKISRVEAEDVGVYYCSQNTHVPPTFGQGTKVEIERTVAAPSVFIFPPSDEQLKSGTASVVCLLNNFYPREAKVQWKVDNALQSGNSQESVTEQDSKDSTYSLSSTLTLSKADYEKHKVYACEVTHQGLSSPVTKSFNRGEC
notes: also called He Ab N325_14T
With B1 the He/Con_2aR was 105 % (GpH7-A5/GpH7-B3/GpL16-k0 = 100).

B2: GpH7-A5/GpH7-B3 variant P238_06M/GpL16-k0 (antibody, human IgG1, kappa)
heavy 1: not shown
heavy 2: not shown
light: DIVMTQSPLSLPVTPGEPASISCQASESLVHSNRNTYLHWYLQKPGQSPQLLIYKVSNRFSGVPDRFSGSGSGTDFTLKISRVEAEDVGVYYCSQNTHVPPTFGQGTKVEIERTVAAPSVFIFPPSDEQLKSGTASVVCLLNNFYPREAKVQWKVDNALQSGNSQESVTEQDSKDSTYSLSSTLTLSKADYEKHKVYACEVTHQGLSSPVTKSFNRGEC
notes: also called He Ab P238_06M
For B2, the He/Con_2aR was 139 % (GpH7-A5/GpH7-B3/GpL16-k0 = 100).

B3: GpH7-A5/GpH7-B3 variant N325_07I/GpL16-k0 (antibody, human IgG1, kappa)
heavy 1: not shown
heavy 2: not shown
light: DIVMTQSPLSLPVTPGEPASISCQASESLVHSNRNTYLHWYLQKPGQSPQLLIYKVSNRFSGVPDRFSGSGSGTDFTLKISRVEAEDVGVYYCSQNTHVPPTFGQGTKVEIERTVAAPSVFIFPPSDEQLKSGTASVVCLLNNFYPREAKVQWKVDNALQSGNSQESVTEQDSKDSTYSLSSTLTLSKADYEKHKVYACEVTHQGLSSPVTKSFNRGEC
notes: also called He Ab N325_07I
With B3 the He/Con_2aR was 133 % (GpH7-A5/GpH7-B3/GpL16-k0 = 100).

B4: GpH7-A5/GpH7-B3 variant P238_03V/GpL16-k0 (antibody, human IgG1, kappa)
heavy 1: not shown
heavy 2: not shown
light: DIVMTQSPLSLPVTPGEPASISCQASESLVHSNRNTYLHWYLQKPGQSPQLLIYKVSNRFSGVPDRFSGSGSGTDFTLKISRVEAEDVGVYYCSQNTHVPPTFGQGTKVEIERTVAAPSVFIFPPSDEQLKSGTASVVCLLNNFYPREAKVQWKVDNALQSGNSQESVTEQDSKDSTYSLSSTLTLSKADYEKHKVYACEVTHQGLSSPVTKSFNRGEC
notes: also called He Ab P238_03V
For B4, the He/Con_2aR was 120 % (GpH7-A5/GpH7-B3/GpL16-k0 = 100).

B5: GpH7-A5/GpH7-B3 variant P238_04F/GpL16-k0 (antibody, human IgG1, kappa)
heavy 1: not shown
heavy 2: not shown
light: DIVMTQSPLSLPVTPGEPASISCQASESLVHSNRNTYLHWYLQKPGQSPQLLIYKVSNRFSGVPDRFSGSGSGTDFTLKISRVEAEDVGVYYCSQNTHVPPTFGQGTKVEIERTVAAPSVFIFPPSDEQLKSGTASVVCLLNNFYPREAKVQWKVDNALQSGNSQESVTEQDSKDSTYSLSSTLTLSKADYEKHKVYACEVTHQGLSSPVTKSFNRGEC
notes: also called He Ab P238_04F
With B5 the He/Con_2aR was 174 % (GpH7-A5/GpH7-B3/GpL16-k0 = 100).

B6: GpH7-A5/GpH7-B3 variant N325_15Y/GpL16-k0 (antibody, human IgG1, kappa)
heavy 1: not shown
heavy 2: not shown
light: DIVMTQSPLSLPVTPGEPASISCQASESLVHSNRNTYLHWYLQKPGQSPQLLIYKVSNRFSGVPDRFSGSGSGTDFTLKISRVEAEDVGVYYCSQNTHVPPTFGQGTKVEIERTVAAPSVFIFPPSDEQLKSGTASVVCLLNNFYPREAKVQWKVDNALQSGNSQESVTEQDSKDSTYSLSSTLTLSKADYEKHKVYACEVTHQGLSSPVTKSFNRGEC
notes: also called He Ab N325_15Y
B6 was tested, and the He/Con_2aR was 101 % (GpH7-A5/GpH7-B3/GpL16-k0 = 100).

B7: GpH7-A5/GpH7-B3 variant P238_19Q/GpL16-k0 (antibody, human IgG1, kappa)
heavy 1: not shown
heavy 2: not shown
light: DIVMTQSPLSLPVTPGEPASISCQASESLVHSNRNTYLHWYLQKPGQSPQLLIYKVSNRFSGVPDRFSGSGSGTDFTLKISRVEAEDVGVYYCSQNTHVPPTFGQGTKVEIERTVAAPSVFIFPPSDEQLKSGTASVVCLLNNFYPREAKVQWKVDNALQSGNSQESVTEQDSKDSTYSLSSTLTLSKADYEKHKVYACEVTHQGLSSPVTKSFNRGEC
notes: also called He Ab P238_19Q
For B7, the He/Con_2aR was 104 % (GpH7-A5/GpH7-B3/GpL16-k0 = 100).

B8: GpH7-A5/GpH7-B3 variant P271_08L/GpL16-k0 (antibody, human IgG1, kappa)
heavy 1: not shown
heavy 2: not shown
light: DIVMTQSPLSLPVTPGEPASISCQASESLVHSNRNTYLHWYLQKPGQSPQLLIYKVSNRFSGVPDRFSGSGSGTDFTLKISRVEAEDVGVYYCSQNTHVPPTFGQGTKVEIERTVAAPSVFIFPPSDEQLKSGTASVVCLLNNFYPREAKVQWKVDNALQSGNSQESVTEQDSKDSTYSLSSTLTLSKADYEKHKVYACEVTHQGLSSPVTKSFNRGEC
notes: also called He Ab P271_08L
B8 was tested, and the He/Con_2aR was 104 % (GpH7-A5/GpH7-B3/GpL16-k0 = 100).

B9: GpH7-A5/GpH7-B3 variant N325_13S/GpL16-k0 (antibody, human IgG1, kappa)
heavy 1: not shown
heavy 2: not shown
light: DIVMTQSPLSLPVTPGEPASISCQASESLVHSNRNTYLHWYLQKPGQSPQLLIYKVSNRFSGVPDRFSGSGSGTDFTLKISRVEAEDVGVYYCSQNTHVPPTFGQGTKVEIERTVAAPSVFIFPPSDEQLKSGTASVVCLLNNFYPREAKVQWKVDNALQSGNSQESVTEQDSKDSTYSLSSTLTLSKADYEKHKVYACEVTHQGLSSPVTKSFNRGEC
notes: also called He Ab N325_13S
In the case of B9, the He/Con_2aR is reported as 143 % (GpH7-A5/GpH7-B3/GpL16-k0 = 100).

B10: GpH7-A5/GpH7-B3 variant N325_20W/GpL16-k0 (antibody, human IgG1, kappa)
heavy 1: not shown
heavy 2: not shown
light: DIVMTQSPLSLPVTPGEPASISCQASESLVHSNRNTYLHWYLQKPGQSPQLLIYKVSNRFSGVPDRFSGSGSGTDFTLKISRVEAEDVGVYYCSQNTHVPPTFGQGTKVEIERTVAAPSVFIFPPSDEQLKSGTASVVCLLNNFYPREAKVQWKVDNALQSGNSQESVTEQDSKDSTYSLSSTLTLSKADYEKHKVYACEVTHQGLSSPVTKSFNRGEC
notes: also called He Ab N325_20W
For B10, the He/Con_2aR was 134 % (GpH7-A5/GpH7-B3/GpL16-k0 = 100).

B11: GpH7-A5/GpH7-B3 variant P238_16H/GpL16-k0 (antibody, human IgG1, kappa)
heavy 1: not shown
heavy 2: not shown
light: DIVMTQSPLSLPVTPGEPASISCQASESLVHSNRNTYLHWYLQKPGQSPQLLIYKVSNRFSGVPDRFSGSGSGTDFTLKISRVEAEDVGVYYCSQNTHVPPTFGQGTKVEIERTVAAPSVFIFPPSDEQLKSGTASVVCLLNNFYPREAKVQWKVDNALQSGNSQESVTEQDSKDSTYSLSSTLTLSKADYEKHKVYACEVTHQGLSSPVTKSFNRGEC
notes: also called He Ab P238_16H
For B11, the He/Con_2aR was 122 % (GpH7-A5/GpH7-B3/GpL16-k0 = 100).
